These results are taken from patent US20040038369.

The data set concerns the target T1, HBEGF (delta TM)-ALP, Q99075.
T1 chain: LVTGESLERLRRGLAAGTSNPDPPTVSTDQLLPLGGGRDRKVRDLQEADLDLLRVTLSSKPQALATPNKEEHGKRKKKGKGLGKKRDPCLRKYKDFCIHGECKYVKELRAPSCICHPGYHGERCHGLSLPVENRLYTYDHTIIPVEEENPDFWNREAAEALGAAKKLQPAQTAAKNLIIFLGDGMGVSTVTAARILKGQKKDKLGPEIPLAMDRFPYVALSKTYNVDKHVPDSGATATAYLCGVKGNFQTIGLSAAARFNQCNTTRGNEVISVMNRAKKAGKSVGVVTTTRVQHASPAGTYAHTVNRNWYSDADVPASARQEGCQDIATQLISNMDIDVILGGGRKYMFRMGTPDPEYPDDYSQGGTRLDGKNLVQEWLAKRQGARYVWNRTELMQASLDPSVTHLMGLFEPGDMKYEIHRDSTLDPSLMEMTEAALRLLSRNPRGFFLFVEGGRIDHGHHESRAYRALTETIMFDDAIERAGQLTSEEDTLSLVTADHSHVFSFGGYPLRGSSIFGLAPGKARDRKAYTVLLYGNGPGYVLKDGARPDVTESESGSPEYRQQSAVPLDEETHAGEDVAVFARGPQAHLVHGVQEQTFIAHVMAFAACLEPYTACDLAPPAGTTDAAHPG

B1: recombinant AST (human airway-specific trypsin-like enzyme expressed in insect cells with a baculovirus vector, purified as in Example 1) (peptide)
chain 1: DQAAANWLINECGAGPDLITLSEQR
chain 2: not shown
Consider B1, for which the “cleavage seen by western blotting of the lysate incubated with recombinant HAST (1.56 U/mL) at 37° C. overnight” value is listed as “A mature type having the EGF domain of the HB-EGF was cut out. The band was shifted to a position of about 12 kD”.
